Laboratory results published in the supplement of paper PMC10126150.
± gives the standard deviation of the averaged measurements.

System: ATP
Experiment: switch fluorescence ratio, 500 uM ATP over buffer (Cy3 cluster intensity, sum of 5 cycles each) (fold (ratio)); higher = stronger signal-on switching upon ATP binding; sequences stand for … in TCGTCGGCAGCGTCAGATGTGTATAAGAGACAGTTTTTTTTTTTTTTTTTTTTTTTTT…TC
Settings: aptamer strand: ATP DNA aptamer (quencher-CACCTGGGGGAGTATTGCGGAGGAAGG + anchor), 100 nM annealed; ATP concentration: 500 uM
How it was run: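 Between each of five buffer/ATP cycles, the flow-cell was stripped with NaOH and re-annealed. Each cycle imaged Cy3-labelled switching-strand clusters, annealed to 100 nM quencher-labelled ATP aptamer on a modified Illumina MiSeq flow-cell, first in selection buffer and then after 15 min with 500 uM ATP at 22 °C. The fluorescence ratio is summed target-cycle over summed buffer-cycle Cy3 intensity per cluster, averaged per switch-domain sequence, with clusters outside 100-1000 RFU excluded.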
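Further: ATP exposure 15 min at 22 °C before imaging.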

Sequence | switch fluorescence ratio
TGGGGAGCCT | 1.03 ± 0.041
TGGGGAGGAA | 1 ± 0.011
TGGGGATATG | 0.997 ± 0.019
TGGGGATCCG | 1.016 ± 0.0095
TGGGGATCGC | 0.983 ± 0.034
TGGGGATCTC | 1.01 ± 0.024
TGGGGATGGA | 0.998 ± 0.02
TGGGGATGTT | 1.01 ± 0.049
TGGGGATTCT | 0.976 ± 0.0054
TGGGGCAGGG | 1.44 ± 0.62
TGGGGCCGGG | 1.01 ± 0.016
TGGGGCGC | 1.01 ± 0.097
TGGGGCGCAT | 1.09 ± 0.064
TGGGGCGCTG | 0.981 ± 0.011
TGGGGGAACG | 0.984 ± 0.026
TGGGGGACGA | 0.954 ± 0.032
TGGGGGAGAG | 1.01 ± 0.03
TGGGGGAGCT | 1.05 ± 0.11
TGGGGGAGGA | 0.979 ± 0.02
TGGGGGATGT | 1.01 ± 0.013
TGGGGGATTC | 1.03 ± 0.067
TGGGGGCAGC | 1.02 ± 0.025
TGGGGGCAGG | 1.01 ± 0.047
TGGGGGCATA | 1.09 ± 0.1
TGGGGGCATT | 1.01 ± 0.033

Sequence | switch fluorescence ratio
TGGGGGCCCG | 0.995 ± 0.047
TGGGGGCCGT | 1.02 ± 0.14
TGGGGGCGGG | 1 ± 0.033
TGGGGGCGTC | 1.02 ± 0.036
TGGGGGCTAG | 0.997 ± 0.037
TGGGGGCTGT | 0.998 ± 0.016
TGGGGGCTT | 1.03 ± 0.014
TGGGGGGAGA | 1.01 ± 0.045
TGGGGGGCAC | 0.986 ± 0.043
TGGGGGGGTG | 1.01 ± 0.033
TGGGGGGGTT | 1 ± 0.034
TGGGGGGTCG | 1.03 ± 0.051
TGGGGGGTTC | 1.04 ± 0.082
TGGGGGGTTT | 1 ± 0.04
TGGGGGTAGC | 1.001 ± 0.0091
TGGGGGTATT | 1.05 ± 0.16
TGGGGGTCAC | 0.9632 ± 0.0067
TGGGGGTCGG | 1.03 ± 0.017
TGGGGGTCTG | 1.01 ± 0.045
TGGGGGTGG | 0.957 ± 0.046
TGGGGGTGTC | 1.03 ± 0.024
TGGGGTAATG | 0.995 ± 0.038
TGGGGTATAA | 1.001 ± 0.0042
TGGGGTATTT | 0.997 ± 0.04
TGGGGTCCGG | 0.97 ± 0.079

Sequence | switch fluorescence ratio
TGGGGTGGAG | 0.97 ± 0.032
TGGGGTGGCG | 1.01 ± 0.067
TGGGGTTAGA | 0.978 ± 0.029
TGGGGTTAGG | 1 ± 0.024
TGGGGTTGCA | 0.99 ± 0.015
TGGGGTTGGA | 1.01 ± 0.025
TGGGGTTTGT | 0.976 ± 0.03
TGGGTAACAT | 0.99 ± 0.031
TGGGTAGGAA | 1.0335 ± 0.00064
TGGGTAGGGT | 0.991 ± 0.036
TGGGTAGGTG | 1.11 ± 0.028
TGGGTAGTTT | 1 ± 0.015
TGGGTATGGG | 1.01 ± 0.037
TGGGTATTCG | 0.967 ± 0.029
TGGGTCAAAT | 1.02 ± 0.027
TGGGTCACAA | 0.992 ± 0.024
TGGGTCATCT | 1.02 ± 0.065
TGGGTCATGA | 1.03 ± 0.034
TGGGTCATTG | 0.973 ± 0.043
TGGGTCCAGT | 0.98 ± 0.011
TGGGTCTAGG | 0.99 ± 0.043
TGGGTCTGTT | 1.01 ± 0.046
TGGGTGGGGC | 0.997 ± 0.018
TGGGTGGGGT | 1.01 ± 0.026
TGGGTGGTCA | 0.987 ± 0.06

Sequence | switch fluorescence ratio
TGGGTGTAGC | 0.986 ± 0.011
TGGGTGTATA | 1.01 ± 0.017
TGGGTGTGGG | 1.02 ± 0.028
TGGGTTAACT | 1.02 ± 0.041
TGGGTTAATC | 1.01 ± 0.052
TGGGTTACTT | 0.995 ± 0.053
TGGGTTAGGG | 1.03 ± 0.044
TGGGTTATCT | 0.972 ± 0.028
TGGGTTCGCG | 0.988 ± 0.021
TGGGTTCGGG | 0.9503 ± 0.0091
TGGGTTGAGT | 0.987 ± 0.017
TGGGTTGATA | 0.9958 ± 0.0069
TGGGTTGGCC | 0.99 ± 0.043
TGGGTTGGCG | 1.04 ± 0.028
TGGGTTGGCT | 1.015 ± 0.0098
TGGGTTGGTA | 1.02 ± 0.02
TGGGTTGGTG | 1.03 ± 0.032
TGGGTTGTGG | 1.01 ± 0.053
TGGGTTTAAC | 1.08 ± 0.18
TGGGTTTCCT | 0.987 ± 0.017
TGGGTTTGGG | 0.984 ± 0.035
TGGGTTTTAC | 1.01 ± 0.049
TGGGTTTTGC | 0.994 ± 0.044
TGGGTTTTTC | 0.968 ± 0.03
TGGTAAAAAA | 0.959 ± 0.016

Sequence | switch fluorescence ratio
TGGTAACAGG | 1.01 ± 0.021
TGGTACAAAA | 1.04 ± 0.025
TGGTACAGGG | 1.03 ± 0.018
TGGTACGGAG | 1 ± 0.011
TGGTAGACGG | 1.15 ± 0.26
TGGTAGGCGT | 0.987 ± 0.031
TGGTAGGGGG | 0.9867 ± 0.0046
TGGTATAGGG | 1.01 ± 0.024
TGGTATAGTT | 0.981 ± 0.049
TGGTATTCGC | 1.01 ± 0.023
TGGTATTGGT | 0.9655 ± 0.0041
TGGTCAAAGA | 0.986 ± 0.015
TGGTCAGGGG | 1.09 ± 0.056
TGGTCCGGGA | 1.03 ± 0.029
TGGTCGCAGG | 0.9899 ± 0.005
TGGTCGCGAT | 1.53 ± 0.73
TGGTCGGGGG | 0.997 ± 0.025
TGGTCGTAGT | 0.994 ± 0.048
TGGTCTAATG | 0.9791 ± 0.002
TGGTGCGGGC | 1.05 ± 0.12
TGGTGCTGGG | 0.9733 ± 0.0066
TGGTGGAAAC | 0.99116 ± 0.00084
TGGTGGAGAT | 1.01 ± 0.028
TGGTGGAGCA | 0.986 ± 0.024
TGGTGGGGCT | 0.994 ± 0.026

Sequence | switch fluorescence ratio
TGGTGGGGTT | 0.984 ± 0.02
TGGTGGTGCA | 1.04 ± 0.039
TGGTGGTGTA | 0.954 ± 0.035
TGGTGTATCC | 0.985 ± 0.019
TGGTGTCAAT | 1 ± 0.017
TGGTGTCAGT | 0.977 ± 0.022
TGGTGTCGGG | 0.998 ± 0.013
TGGTGTCGTG | 0.999 ± 0.034
TGGTGTTTTT | 0.992 ± 0.027
TGGTTACCAT | 1.02 ± 0.057
TGGTTAGCG | 1.04 ± 0.024
TGGTTAGGGA | 1.01 ± 0.026
TGGTTAGGTT | 0.966 ± 0.013
TGGTTAGTTG | 0.994 ± 0.013
TGGTTCAGGG | 0.997 ± 0.04
TGGTTCAGGT | 1.02 ± 0.022
TGGTTCAGTG | 0.993 ± 0.048
TGGTTCCCTT | 1.02 ± 0.07
TGGTTCCGGG | 1.01 ± 0.02
TGGTTGAAT | 1.01 ± 0.049
TGGTTGAGTT | 0.973 ± 0.021
TGGTTGTAAG | 1.03 ± 0.024
TGGTTGTGAG | 1 ± 0.0065
TGGTTGTTGC | 0.998 ± 0.043
TGGTTGTTGT | 0.96 ± 0.014

Sequence | switch fluorescence ratio
TGGTTTAACG | 0.99243 ± 0.00051
TGGTTTCCGT | 0.991 ± 0.027
TGGTTTGAGG | 0.989 ± 0.035
TGGTTTTAAG | 0.98 ± 0.024
TGGTTTTACG | 1.019 ± 0.01
TGGTTTTATT | 1.01 ± 0.043
TGGTTTTGGA | 0.976 ± 0.056
TGGTTTTTGT | 1.1 ± 0.2
TGGTTTTTTG | 0.996 ± 0.017
TGTAAACGGG | 1.09 ± 0.12
TGTAAATAAG | 0.991 ± 0.043
TGTAACCCAT | 1.02 ± 0.061
TGTAACGAAA | 1.008 ± 0.0027
TGTAACGGGG | 1.03 ± 0.032
TGTAAGACCC | 1.06 ± 0.033
TGTAAGAGTG | 0.983 ± 0.021
TGTAATACGT | 1.17 ± 0.019
TGTAATCCGG | 0.986 ± 0.012
TGTAATCTAC | 1.06 ± 0.057
TGTAATGGTT | 1.004 ± 0.01
TGTACGGGGA | 0.995 ± 0.03
TGTAGAGGTG | 1.09 ± 0.022
TGTAGCAGCT | 1.12 ± 0.045
TGTAGCTTGT | 1.09 ± 0.075
TGTAGGGGAA | 0.996 ± 0.011

Sequence | switch fluorescence ratio
TGTAGGGGGC | 1.27 ± 0.39
TGTAGGGTTC | 1.12 ± 0.19
TGTAGTAGCG | 0.9901 ± 0.0064
TGTAGTTGTG | 1.02 ± 0.061
TGTAGTTTAG | 1.01 ± 0.032
TGTAGTTTGT | 0.973 ± 0.034
TGTATGGTTT | 0.971 ± 0.048
TGTATGTCGG | 0.959 ± 0.03
TGTATTCAAT | 0.986 ± 0.013
TGTATTCAGG | 1.01 ± 0.056
TGTATTTTT | 0.98586 ± 0.00097
TGTCACTGTG | 0.979 ± 0.049
TGTCAGGGCC | 1.04 ± 0.053
TGTCAGTGCT | 1.015 ± 0.0066
TGTCAGTTTC | 0.987 ± 0.018
TGTCCAGCTC | 1.49 ± 0.65
TGTCCCTCTT | 1.02 ± 0.053
TGTCCGGGGG | 0.994 ± 0.029
TGTCGGGATT | 1.03 ± 0.053
TGTCGGGGGT | 1.22 ± 0.18
TGTCGTTATT | 0.9546 ± 0.0018
TGTCTATTTT | 1.019 ± 0.0033
TGTCTGGGGG | 1.01 ± 0.025
TGTCTTTATT | 0.988 ± 0.016
TGTGAAGTTT | 0.9595 ± 0.0076
